Experimental data: patent US20230382948A1, “DELIVERY OF ENDOTHELIAL CELL-LADEN MICROGEL ELICITS ANGIOGENESIS IN SELF-ASSEMBLING ULTRASHORT PEPTIDE HYDROGELS” (KING ABDULLAH UNIVERSITY OF SCIENCE AND TECHNOLOGY, priority 2020, published 2023)

Legend:
[1] = Transmission electron microscopy of nanofibers; assay type: physicochemical; settings: TEM
Description: TEM imaging was performed using a FEI Tecnai G2 Spirit Twin instrument with a 120 kV emission gun. One drop of diluted peptide hydrogel in water was placed on a carbon-coated copper grid that had been treated with glow discharge plasma prior to being used. The drop was kept on the grid for 10 min before being blotted using filter paper. The grid was stained with 2% uranyl acetate for 30 s to get better contrast. The grid was then rinsed in water to remove uranyl excess and dried for at least 1 day before imaging. The average diameter of the nanofibers was measure using hnageJ and Origin software from 100 fibers.

fibroblasts (HDFn) = assay: Cell culture on microgels, HDFn; assay type: cell-based, human; settings: first 24 h of culture
Description: A 1.2×10^6 amount of cells suspended in 4 mL of complete cell culture media (300,000 cells/mL) was mixed with 200 μL of microgels by pipetting. The mix was seeded at […] in a 24-well low binding plate and kept at 37° C., 95% humidity, and 5% CO2 under rocker conditions at 30 rpm for 24 h. Then, cell-laden microgels were transferred into a tube by pipetting and spun down at 50 g for 5 min. The upper layer, containing cells not adherent to the microgels, was discarded. At this moment, cell-laden microgels were either resuspended with complete cell culture media to continue cell culture under rocker conditions or processed for staining.
The cell-laden microgels were fixed with 4% formaldehyde (v/v) in PBS and incubated for 30 min at 22° C. Later, formaldehyde was removed by centrifugation, and cell-laden microgels were washed twice with PBS in a similar way. Permeabilization buffer (6.3 mM MgCl2, 233.7 mM sucrose, 0.5% (v/v) Triton® X-100 in PBS) was kept at −20° C. and thawed just before use. […]
Proliferative cells were labeled by incubating cell-laden microgels with […] EdU in complete medium for 24 h in rocking culture at 30 rpm. […] EdU was detected following the manufacturer instructions by incubating cell-laden microgels with a Click-iT Plus reaction cocktail for 30 min at 22° C. protected from light. […]

Substance	Single-filament thickness [1]	HDFn cell adhesion and morphology on microgels (fibroblasts (HDFn))
Ac-Ile-Val-Cha-Lys-NH2 (IVXK; HELM PEPTIDE1{[ac].I.V.[Cha].K.[am]}$$$$V2.0; SMILES CC[C@H](C)[C@H](NC(C)=O)C(=O)N[C@H](C(=O)N[C@@H](CC1CCCCC1)C(=O)N[C@@H](CCCCN)C(N)=O)C(C)C) [IVZK, self-assembling ultrashort tetrapeptide, Z = cyclohexylalanine, forms hydrogels and microgels]	around 3 nm	cell adhesion and stretched morphology
Ac-Ile-Val-Phe-Lys-NH2 (Ac-IVFK-NH2) [self-assembling ultrashort tetrapeptide, forms hydrogels and microgels]	around 3 nm	cell adhesion and stretched morphology
